Patent publication US20210139548A1 (published 2021)
*1 amine or outer side, *2 acyl side, *3 side chain or, on linkers, in order; H or OH if unused. Side-chain parts run from the residue outwards. The star is where a group is joined. C18 diacid = O=C(O)CCCCCCCCCCCCCCCCC(=O)*; γGlu = O=C(O)[C@H](CCC(=O)[*:2])N[*:1]; Isovaleryl = CC(C)CC(=O)*; AEEA = NCCOCCOCC(=O)O

T1: human neuropeptide Y2 receptor (human, UniProt P49146 1-381)
T1 construct: whole, on cells; also called hNPY2 receptor; hNPY2-R
T1 sequence (looked up): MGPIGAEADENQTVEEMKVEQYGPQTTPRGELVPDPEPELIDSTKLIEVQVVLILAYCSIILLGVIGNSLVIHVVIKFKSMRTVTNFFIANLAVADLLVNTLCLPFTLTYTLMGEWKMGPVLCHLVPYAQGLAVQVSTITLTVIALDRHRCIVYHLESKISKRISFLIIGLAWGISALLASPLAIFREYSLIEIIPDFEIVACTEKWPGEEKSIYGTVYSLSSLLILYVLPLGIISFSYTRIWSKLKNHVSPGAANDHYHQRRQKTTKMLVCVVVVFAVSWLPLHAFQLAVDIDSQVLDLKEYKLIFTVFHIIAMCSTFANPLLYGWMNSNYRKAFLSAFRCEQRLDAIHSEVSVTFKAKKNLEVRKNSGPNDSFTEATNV


Target: T1, human neuropeptide Y2 receptor
Assay: radioligand competition (125I-PYY(1-36)), hNPY2R membranes
Method in brief: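 Commercial human Y2 receptor membranes (0.5 μg protein/well) were incubated with peptide for 2 h at room temperature in 50 mM HEPES, 5 mM MgCl₂, 1 mM CaCl₂, pH 7.4, with 0.2% ovalbumin. Bound radioligand was separated on PEI-soaked GF/C filters and counted by scintillation, and IC₅₀ came from nonlinear sigmoidal regression.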

Ki [nM] | Binder
1.26 | Isovaleryl-APEK([AEEA-AEEA-γGlu-C18 diacid])PEADAEPEELQRYYVSLRHYYNWLTRQRY-NH2 (SMILES CC(C)CC(=O)N[C@@H](C)C(=O)N1CCC[C@H]1C(=O)N[C@@H](CCC(=O)O)C(=O)N[C@@H](CCCCNC(=O)COCCOCCNC(=O)COCCOCCNC(=O)CC[C@H](NC(=O)CCCCCCCCCCCCCCCCC(=O)O)C(=O)O)C(=O)N1CCC[C@H]1C(=O)N[C@@H](CCC(=O)O)C(=O)N[C@@H](C)C(=O)N[C@@H](CC(=O)O)C(=O)N[C@@H](C)C(=O)N[C@@H](CCC(=O)O)C(=O)N1CCC[C@H]1C(=O)N[C@@H](CCC(=O)O)C(=O)N[C@@H](CCC(=O)O)C(=O)N[C@@H](CC(C)C)C(=O)N[C@@H](CCC(N)=O)C(=O)N[C@@H](CCCNC(=N)N)C(=O)N[C@@H](Cc1ccc(O)cc1)C(=O)N[C@@H](Cc1ccc(O)cc1)C(=O)N[C@H](C(=O)N[C@@H](CO)C(=O)N[C@@H](CC(C)C)C(=O)N[C@@H](CCCNC(=N)N)C(=O)N[C@@H](Cc1c[nH]cn1)C(=O)N[C@@H](Cc1ccc(O)cc1)C(=O)N[C@@H](Cc1ccc(O)cc1)C(=O)N[C@@H](CC(N)=O)C(=O)N[C@@H](Cc1c[nH]c2ccccc12)C(=O)N[C@@H](CC(C)C)C(=O)N[C@H](C(=O)N[C@@H](CCCNC(=N)N)C(=O)N[C@@H](CCC(N)=O)C(=O)N[C@@H](CCCNC(=N)N)C(=O)N[C@@H](Cc1ccc(O)cc1)C(N)=O)[C@@H](C)O)C(C)C) [Compound 56]
5.95 | Isovaleryl-APEK([AEEA-AEEA-γGlu-C18 diacid])PEEAASPEELEQYYVSLRHYYNWLTRQRY-NH2 (SMILES CC(C)CC(=O)N[C@@H](C)C(=O)N1CCC[C@H]1C(=O)N[C@@H](CCC(=O)O)C(=O)N[C@@H](CCCCNC(=O)COCCOCCNC(=O)COCCOCCNC(=O)CC[C@H](NC(=O)CCCCCCCCCCCCCCCCC(=O)O)C(=O)O)C(=O)N1CCC[C@H]1C(=O)N[C@@H](CCC(=O)O)C(=O)N[C@@H](CCC(=O)O)C(=O)N[C@@H](C)C(=O)N[C@@H](C)C(=O)N[C@@H](CO)C(=O)N1CCC[C@H]1C(=O)N[C@@H](CCC(=O)O)C(=O)N[C@@H](CCC(=O)O)C(=O)N[C@@H](CC(C)C)C(=O)N[C@@H](CCC(=O)O)C(=O)N[C@@H](CCC(N)=O)C(=O)N[C@@H](Cc1ccc(O)cc1)C(=O)N[C@@H](Cc1ccc(O)cc1)C(=O)N[C@H](C(=O)N[C@@H](CO)C(=O)N[C@@H](CC(C)C)C(=O)N[C@@H](CCCNC(=N)N)C(=O)N[C@@H](Cc1c[nH]cn1)C(=O)N[C@@H](Cc1ccc(O)cc1)C(=O)N[C@@H](Cc1ccc(O)cc1)C(=O)N[C@@H](CC(N)=O)C(=O)N[C@@H](Cc1c[nH]c2ccccc12)C(=O)N[C@@H](CC(C)C)C(=O)N[C@H](C(=O)N[C@@H](CCCNC(=N)N)C(=O)N[C@@H](CCC(N)=O)C(=O)N[C@@H](CCCNC(=N)N)C(=O)N[C@@H](Cc1ccc(O)cc1)C(N)=O)[C@@H](C)O)C(C)C) [Compound 60]
